The target of the experiment is GST-Nup2p (S. cerevisiae, UniProt P32499 1-720). Nature of the experiment: pull-down.
Chain of GST-Nup2p (P32499 whole entry): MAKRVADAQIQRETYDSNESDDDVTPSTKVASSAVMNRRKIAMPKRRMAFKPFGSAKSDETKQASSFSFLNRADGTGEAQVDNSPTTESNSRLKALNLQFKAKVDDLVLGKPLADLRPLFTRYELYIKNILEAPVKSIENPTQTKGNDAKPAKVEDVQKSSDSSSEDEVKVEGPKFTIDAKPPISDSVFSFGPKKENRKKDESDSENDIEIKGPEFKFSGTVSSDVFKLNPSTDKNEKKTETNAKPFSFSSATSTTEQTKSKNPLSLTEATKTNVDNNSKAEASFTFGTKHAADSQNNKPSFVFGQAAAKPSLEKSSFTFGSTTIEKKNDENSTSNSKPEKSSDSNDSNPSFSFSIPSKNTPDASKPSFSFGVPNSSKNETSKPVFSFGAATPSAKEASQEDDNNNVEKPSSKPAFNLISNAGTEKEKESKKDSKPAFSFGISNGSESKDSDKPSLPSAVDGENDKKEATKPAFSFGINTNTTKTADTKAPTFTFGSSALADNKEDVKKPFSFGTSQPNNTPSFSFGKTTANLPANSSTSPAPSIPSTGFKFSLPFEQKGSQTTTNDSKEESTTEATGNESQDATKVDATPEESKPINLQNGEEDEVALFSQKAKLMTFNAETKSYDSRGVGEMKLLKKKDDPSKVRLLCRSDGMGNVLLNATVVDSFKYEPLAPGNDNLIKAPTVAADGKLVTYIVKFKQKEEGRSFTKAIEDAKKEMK

B1: Bacterially expressed and purified Prp20p (natural protein)
chain: MVKRTVATNGDASGAHRAKKMSKTHASHIINAQEDYKHMYLSVQPLDIFCWGTGSMCELGLGPLAKNKEVKRPRLNPFLPRDEAKIISFAVGGMHTLALDEESNVWSWGCNDVGALGRDTSNAKEQLKDMDADDSSDDEDGDLNELESTPAKIPRESFPPLAEGHKVVQLAATDNMSCALFSNGEVYAWGTFRCNEGILGFYQDKIKIQKTPWKVPTFSKYNIVQLAPGKDHILFLDEEGMVFAWGNGQQNQLGRKVMERFRLKTLDPRPFGLRHVKYIASGENHCFALTKDNKLVSWGLNQFGQCGVSEDVEDGALVTKPKRLALPDNVVIRSIAAGEHHSLILSQDGDLYSCGRLDMFEVGIPKDNLPEYTYKDVHGKARAVPLPTKLNNVPKFKSVAAGSHHSVAVAQNGIAYSWGFGETYAVGLGPFEDDTEVPTRIKNTATQDHNIILVGCGGQFSVSGGVKLSDEDAEKRADEMDD
For the molecule B1, the binding result is “binds”.

The record behind these values is PMC2171315 (The Journal of Cell Biology, 2005).
